In paper doi:10.1101/2025.11.27.690710, “Direct recruitment of RNA Polymerase II by NANOG to activated target genes” (bioRxiv, 2025):

Molecular target: the molecule itself
Assay: BASIL (Bead Assay of Interacting Ligands); biotinylated oligonucleotide with a single NANOG site on streptavidin beads, incubated with rNANOG at 1mg/ml for 1 hour, washed, then with fluorescein amidite labelled oligonucleotide of the same sequence; fluorescence on the bead only if NANOG is a multimer

B1: Recombinant full length NANOG, purified and refolded (natural protein, mouse, UniProt Q80Z64 1-305, looked up)
chain: MSVGLPGPHSLPSSEEASNSGNASSMPAVFHPENYSCLQGSATEMLCTEAASPRPSSEDLPLQGSPDSSTSPKQKLSSPEADKGPEEEENKVLARKQKMRTVFSQAQLCALKDRFQKQKYLSLQQMQELSSILNLSYKQVKTWFQNQRMKCKRWQKNQWLKTSNGLIQKGSAPVEYPSIHCSYPQGYLVNASGSLSMWGSQTWTNPTWSSQTWTNPTWNNQTWTNPTWSSQAWTAQSWNGQPWNAAPLHNFGEDFLQPYVQLQQNFSASDLEVNLEATRESHAHFSTPQALELFLNYSVTPPGEI
notes: NANOG, mouse, full length; Forms multimers by the BASIL assay; the size of the oligomer is not measured here; also called purified NANOG; rNANOG
Question: Does B1 bind?
Answer: Result: binds
